In IntAct's records for PubMed 17567753:

B1: Lysine-specific demethylase 4A (Homo sapiens), O75164 (parent)
chain: MASESETLNPSARIMTFYPTMEEFRNFSRYIAYIESQGAHRAGLAKVVPPKEWKPRASYDDIDDLVIPAPIQQLVTGQSGLFTQYNIQKKAMTVREFRKIANSDKYCTPRYSEFEELERKYWKNLTFNPPIYGADVNGTLYEKHVDEWNIGRLRTILDLVEKESGITIEGVNTPYLYFGMWKTSFAWHTEDMDLYSINYLHFGEPKSWYSVPPEHGKRLERLAKGFFPGSAQSCEAFLRHKMTLISPLMLKKYGIPFDKVTQEAGEFMITFPYGYHAGFNHGFNCAESTNFATRRWIEYGKQAVLCSCRKDMVKISMDVFVRKFQPERYKLWKAGKDNTVIDHTLPTPEAAEFLKESELPPRAGNEEECPEEDMEGVEDGEEGDLKTSLAKHRIGTKRHRVCLEIPQEVSQSELFPKEDLSSEQYEMTECPAALAPVRPTHSSVRQVEDGLTFPDYSDSTEVKFEELKNVKLEEEDEEEEQAAAALDLSVNPASVGGRLVFSGSKKKSSSSLGSGSSRDSISSDSETSEPLSCRAQGQTGVLTVHSYAKGDGRVTVGEPCTRKKGSAARSFSERELAEVADEYMFSLEENKKSKGRRQPLSKLPRHHPLVLQECVSDDETSEQLTPEEEAEETEAWAKPLSQLWQNRPPNFEAEKEFNETMAQQAPHCAVCMIFQTYHQVEFGGFNQNCGNASDLAPQKQRTKPLIPEMCFTSTGCSTDINLSTPYLEEDGTSILVSCKKCSVRVHASCYGVPPAKASEDWMCSRCSANALEEDCCLCSLRGGALQRANDDRWVHVSCAVAILEARFVNIAERSPVDVSKIPLPRFKLKCIFCKKRRKRTAGCCVQCSHGRCPTAFHVSCAQAAGVMMQPDDWPFVVFITCFRHKIPNLERAKGALQSITAGQKVISKHKNGRFYQCEVVRLTTETFYEVNFDDGSFSDNLYPEDIVSQDCLQFGPPAEGEVVQVRWTDGQVYGAKFVASHPIQMYQVEFEDGSQLVVKRDDVYTLDEELPKRVKSRLSVASDMRFNEIFTEKEVKQEKKRQRVINSRYREDYIEPALYRAIME

Variants of: B1
Details: with h31t_human H3-4, Q16695

| Variant | effect of a mutation on the interaction |
| --- | --- |
| G165A;G170A | disrupting interaction strength |
| G133A;G138A | disrupting interaction strength |

Variants of: B1
Details: with h31t_human H3-4, Q16695
Remark: another data set of the same source

| Variant | effect of a mutation on the interaction |
| --- | --- |
| Y177F | decreasing interaction |
| Y177L | disrupting interaction |
| N86A | decreasing interaction |
| D135A | decreasing interaction |
| Q88A | decreasing interaction |
| N290D | disrupting interaction |
| N290I | disrupting interaction |
| N290V | disrupting interaction |
| N290A | disrupting interaction |
| Y175F | decreasing interaction |
| K241A | disrupting interaction |
| K241L | disrupting interaction |
